Measured values reported in patent US12227551B2, “Membrane bound IL12 compositions and methods for tunable regulation” (Obsidian Therapeutics, Inc., priority 2018, dated 2025).

How the values were obtained:
[1] = Plasma IL12 and IFNgamma cytokine levels, Nalm6-Luc NSG model (Example 9; Table 31); type: in vivo, NSG mice; conditions: day 14 post T cell transfer
Method: (§1) The study was designed to determine if membrane bound IL12 (mbIL12) expressed on CAR-T cells via a CD8 TM domain and CD8 Hinge Region promotes CAR T cell expansion in cis, promotes non-CAR-T cell expansion in trans, and/or increases in vivo CAR T cell efficacy against CD19+ Nalm6 tumors. To test in vivo anti-tumor activity, experiments were performed in NSG mice. Nalm6 cells were transfected with Redifect Red-Fluc (Perkin Elmer) under selection using Puromycin for ˜2 months to generate a line that stably expresses the luciferase reporter; thereafter named Nalm6-Luc. Ten days before tumor implantation, Nalm6-Luc cells were thawed and cultured in puromycin-containing media. On day 0, cells were counted, resuspended in PBS and injected into NSG mice via tail vein. On day 6, mice were imaged for bioluminescent intensity (BLI) and sorted into groups based on their tumor size ensuring that all groups had the same sized tumors. Human T cells were transduced with one of the following constructs as shown in the study design in Table 27:
Thus, anti-tumor efficacy (Table 28) appears to correlate with plasma cytokine levels.

[2] = test system: CAR+ T cells and GFP+ T cells; experiment: CAR-T and GFP+ T cell expansion in peripheral blood by flow cytometry (Example 10; Table 37); type: in vivo, NSG mice; set-up: unit not given here; conditions: day 14 post T cell transfer, 1 million CAR+ T cells
Method: Next, holding total CAR+ T cell dose constant at 1 million cells per animal, transduced T cells were intravenously infused into mice on day 7. Tumors were monitored in mice using BLI and the mean of the Total Flux (photons/second) was calculated for each group as an indicator of tumor burden (Table 34). In order to track the trans effect of IL12 expressing CART cells on that lack expression of IL12, 10 million GFP+ T cells (negative for IL12) were co-infused with the IL12-expressing CAR+ T cells, and peripheral blood draws taken over time to evaluate the effect of IL12 on phenotypic changes in GFP+ T cells by flow cytometry analysis.
Thus, anti-tumor efficacy (Table 34) appears to correlate with CAR-T cell expansion.

[3] = Body weight and clinical signs of GVHD, Nalm6-Luc NSG model (Example 9; Table 30); type: in vivo, NSG mice; conditions: in g (unit assumed)
Method: as §1
The amount of body weight loss appeared to correlate with the levels of plasma IL12 detected at earlier timepoints (Table 31).

[4] = test system: phospho-STAT4 in GFP+ T cells; experiment: Bystander effect: phospho-STAT4 in GFP+ T cells incubated 1 hour with co-culture supernatants, flow cytometry (Example 6; Table 20); type: cell-based, human
Method: Membrane bound IL12 (mbIL12) was expressed in tandem with a CD19-CAR and tested in primary human T cells. On day 0, primary human T cells were stimulated with Dynabeads (T-expander CD3/CD28) at a 3:1 bead:cell ratio in media containing 10% fetal bovine serum (FBS). The next day, lentivirus with mbIL12 in tandem with a CD19-CAR construct was added in the presence of reduced serum (5% FBS). After 7 days of T cell expansion, increasing numbers of CAR+ T cells were cocultured with 10,000 GFP+, CAR-negative T cells. At the end of 1 hour of co-culture, the phospho-STAT4 levels within the GFP+ T cells were quantitated by flow cytometry using reagents and methods from BD. To determine the relative amount of IL12 activity that had accumulated in the T cell supernatants during the hour-long co-culture, cell supernatants from the co-culture were transferred to a new plate of GFP+ T cells and incubated for 1 hour. Phospho-STAT4 levels were measured in the GFP+ T cells incubated with the supernatants from the original co-culture. The transactivation ([…] geometric mean fluorescence (MFI) on GFP+ cells in co-culture) and the bystander effect (pSTAT4 geometric MFI on GFP+ T cells in 1 hour supernatants) for a CAR-IL12+:GFP+ ratio of 64 are shown in Table 20.
The transactivation (pSTAT4 geometric mean fluorescence (MFI) on GFP+ cells in co-culture) and the bystander effect (pSTAT4 geometric MFI on GFP+ T cells in 1 hour supernatants) for the constructs at different ratios are summarized below. For OT-001407, when (a) the CAR-IL12+:GFP+ ratio was 32, the transactivation was 1711 and the bystander effect was −1680, (b) the CAR-IL12+:GFP+ ratio was 16, the transactivation was 1768 and the bystander effect was −1632, (c) the CAR-IL12+:GFP+ ratio was 8, the transactivation was 1433 and the bystander effect was −1603, (d) the CAR-IL12+:GFP+ ratio was 4, the transactivation was 1195 and the bystander effect was −1860, and (e) the CAR-IL12+:GFP+ ratio was 2, the transactivation was 1101 and the bystander effect was −1800. For OT-001356, when (a) the CAR-IL12+:GFP+ ratio was 73.9, the transactivation was 6452 and the bystander effect was −2617, (b) the CAR-IL12+:GFP+ ratio was 37, the transactivation was 6935 and the bystander effect was −1404, (c) the CAR-IL12+:GFP+ ratio was 18.5, the transactivation was 6417 and the bystander effect was −226, (d) the CAR-IL12+:GFP+ ratio was 9.2, the transactivation was 5568 and the bystander effect was −86, (e) the CAR-IL12+:GFP+ ratio was 4.6, the transactivation was 4374 and the bystander effect was −518, and (f) the CAR-IL12+:GFP+ ratio was 2.3, the transactivation was 2839 and the bystander effect was −1093. For OT-001895, when (a) the CAR-IL12+:GFP+ ratio was 34.1, the transactivation was 7699 and the bystander effect was −3724, (b) the CAR-IL12+:GFP+ ratio was 17.1, the transactivation was 7718 and the bystander effect was −2996, (c) the CAR-IL12+:GFP+ ratio was 8.5, the transactivation was 8200 and the bystander effect was −1178, (d) the CAR-IL12+:GFP+ ratio was 4.3, the transactivation was 7172 and the bystander effect was −277, (e) the CAR-IL12+:GFP+ ratio was 2.1, the transactivation was 6095 and the bystander effect was −238, and (f) the CAR-IL12+:GFP+ ratio was 1.1, the transactivation was 4498 and the bystander effect was −136. For OT-002011, when (a) the CAR-IL12+:GFP+ ratio was 75.8, the transactivation was 8086 and the bystander effect was −3531, (b) the CAR-IL12+:GFP+ ratio was 37.9, the transactivation was 8031 and the bystander effect was −2884, (c) the CAR-IL12+:GFP+ ratio was 18.9, the transactivation was 8324 and the bystander effect was −1376, (d) the CAR-IL12+:GFP+ ratio was 9.5, the transactivation was 7765 and the bystander effect was −1133, (e) the CAR-IL12+:GFP+ ratio was 4.7, the transactivation was 6682 and the bystander effect was −566, and (f) the CAR-IL12+:GFP+ ratio was 2.4, the transactivation was 5190 and the bystander effect was −642. […]

B1: OT-001356: CD19 CAR; stop; IRES; secreted IL12 (p40 23-328; (G4S)3; p35 57-253); nucleic acid SEQ ID NO: 482 (protein)
chain: IWELKKDVYVVELDWYPDAPGEMVVLTCDTPEEDGITWTLDQSSEVLGSGKTLTIQVKEFGDAGQYTCHKGGEVLSHSLLLLHKKEDGIWSTDILKDQKEPKNKTFLRCEAKNYSGRFTCWWLTTISTDLTFSVKSSRGSSDPQGVTCGAATLSAERVRGDNKEYEYSVECQEDSACPAAEESLPIEVMVDAVHKLKYENYTSSFFIRDIIKPDPPKNLQLKPLKNSRQVEVSWEYPDTWSTPHSYFSLTFCVQVQGKSKREKKDRVFTDKTSATVICRKNASISVRAQDRYYSSSWSEWASVPCSGGGGSGGGGSGGGGSRNLPVATPDPGMFPCLHHSQNLLRAVSNMLQKARQTLEFYPCTSEEIDHEDITKDKTSTVEACLPLELTKNESCLNSRETSFITNGSCLASRKTSFMMALCLSSIYEDLKMYQVEFKTMNAKLLMDPKRQIFLDQNMLAVIDELMQALNFNSETVPQKSSLEEPDFYKTKIKLCILLHAFRIRAVTIDRVMSYLNASGS
[1]; cell dose 0.3 ×10e6
  Day 14 Plasma IFNgamma Levels: 17,565 pg/mL
  Day 14 Plasma IL 12 Levels: 1,455 pg/mL
[1]; cell dose 1 ×10e6
  Day 14 Plasma IFNgamma Levels: 22,154 pg/mL
  Day 14 Plasma IL 12 Levels: 3,853 pg/mL
[2]
  Cis Effect: Numbers of CAR+ Cells on Day 14: 1777
  Trans Effect: Numbers of GFP+ Cells on Day 14: 99
[3]; day 6 post tumor implant (before T cell infusion)
  body weight: 19.6125
[3]; day 13 post tumor implant
  body weight: 20.5125
[3]; day 20 post tumor implant
  body weight: 20.5875
[3]; day 27 post tumor implant
  body weight: 22.2125
[3]; day 34 post tumor implant
  body weight: 21.8875
[3]; day 41 post tumor implant
  body weight: 19.93
[4]; CAR-IL12+:GFP+ ratio 2.3
  bystander effect (pSTAT4 geometric MFI on GFP+ T cells in 1 hour supernatants): −1093
[4]; CAR-IL12+:GFP+ ratio 4.6
  bystander effect (pSTAT4 geometric MFI on GFP+ T cells in 1 hour supernatants): −518
[4]; CAR-IL12+:GFP+ ratio 9.2
  bystander effect (pSTAT4 geometric MFI on GFP+ T cells in 1 hour supernatants): −86
[4]; CAR-IL12+:GFP+ ratio 18.5
  bystander effect (pSTAT4 geometric MFI on GFP+ T cells in 1 hour supernatants): −226
[4]; CAR-IL12+:GFP+ ratio 37
  bystander effect (pSTAT4 geometric MFI on GFP+ T cells in 1 hour supernatants): −1404
[4]; CAR-IL12+:GFP+ ratio 73.9
  bystander effect (pSTAT4 geometric MFI on GFP+ T cells in 1 hour supernatants): −2617
